Residue numbers refer to the chain shown, from its start. In names and notes the source's numbering stands.
T1: human GITR-Fc (human, UniProt Q9Y5U5 26-162, conjugated with europium cryptate in the HTRF assays)
T1 construct: also called hGITR-Fc; hGITRFc; not shown: Fc domain of hIgG1
T1 sequence: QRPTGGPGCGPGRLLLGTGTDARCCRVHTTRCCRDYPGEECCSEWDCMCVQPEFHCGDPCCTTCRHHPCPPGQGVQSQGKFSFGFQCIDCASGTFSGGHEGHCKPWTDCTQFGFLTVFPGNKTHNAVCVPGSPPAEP

T2: recombinant mouse GITR-Fc (mouse, UniProt O35714 20-153, limits assumed)
T2 construct: Bought reagent; construct not described; not shown: Fc
T2 sequence (looked up): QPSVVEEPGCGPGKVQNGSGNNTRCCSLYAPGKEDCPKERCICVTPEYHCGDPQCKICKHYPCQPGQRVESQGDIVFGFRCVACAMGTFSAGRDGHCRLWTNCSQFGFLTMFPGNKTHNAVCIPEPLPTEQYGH

T3: recombinant mouse OX40-Fc (mouse, UniProt P47741 20-211, limits assumed)
T3 construct: Bought reagent; construct not described; not shown: Fc
T3 sequence (looked up): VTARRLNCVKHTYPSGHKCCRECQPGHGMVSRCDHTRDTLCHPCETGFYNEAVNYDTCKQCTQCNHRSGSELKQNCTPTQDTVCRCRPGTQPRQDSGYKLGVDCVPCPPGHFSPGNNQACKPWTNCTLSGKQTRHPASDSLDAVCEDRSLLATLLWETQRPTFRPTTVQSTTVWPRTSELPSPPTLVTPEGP

T4: human GITR expressed on cells (human, UniProt Q9Y5U5 26-241)
T4 sequence: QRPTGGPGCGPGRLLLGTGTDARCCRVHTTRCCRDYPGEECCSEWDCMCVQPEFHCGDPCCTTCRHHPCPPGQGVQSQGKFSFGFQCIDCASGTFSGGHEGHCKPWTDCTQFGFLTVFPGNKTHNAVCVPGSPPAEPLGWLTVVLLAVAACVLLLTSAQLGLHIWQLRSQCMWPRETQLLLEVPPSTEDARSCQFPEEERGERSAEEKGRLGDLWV

B1: hGITRL FP wt (Fc fusion)
chain: QLETAKEPCMAKFGPLPSKWQMASSEPPCVNKVSDWKLEILQNGLYLIYGQVAPNANYNDVAPFEVRLYKNKDMIQTLTNKSKIQNVGGTYELHVGDTIDLIFNSEHQVLKNNTYWGIILLANPQFIS
notes: not shown: detection with anti-FLAG antibody implies a FLAG e
B2: hGITRL FP N161D (Fc fusion)
chain: B1 chain with N112D
notes: as for B1
B3: mOX40L-FP mIgG1 (Fc fusion)
chain: VPRDCGCKPCICTVPEVSSVFIFPPKPKDVLTITLTPKVTCVVVDISKDDPEVQFSWFVDDVEVHTAQTQPREEQFNSTFRSVSELPIMHQDWLNGKEFKCRVNSAAFPAPIEKTISKTKGRPKAPQVYTIPPPKEQMAKDKVSLTCMITDFFPEDITVEWQWNGQPAENYKNTQPIMDTDGSYFVYSKLNVQKSNWEAGNTFTCSVLHEGLHNHHTEKSLSHSPGKRLDQDKIEALSNKVQQLERSIGLKDLAMADLEQKVSELEVSTSSPAKDPPIQRLRGAVTRCEDGQLFISSYKNEYQTMEVQNNSVVIKCDGLYIIYLKGSFFQEVKIDLHFREDHNPISIPMLNDGRRIVFTVVASLAFKDKVYLTVNAPDTLCEHLQINDGELIVVQLTPGYCAPEGSYHSTVNQVPL
notes: also called murine OX40L FP mIgG1; Mouse OX40L FP mIgG1
B4: hexameric GITRL FP (GCN4 pII) (Fc fusion, not shown: a dimerising Fc or GST; small tags and cut ends)
chain (part 1 of 2): not shown
chain (part 2 of 2): LQLETAKEPCMAKFGPLPSKWQMASSEPPCVNKVSDWKLEILQNGLYLIYGQVAPNANYNDVAPFEVRLYKNKDMIQTLTNKSKIQNVGGTYELHVGDTIDLIFNSEHQVLKNNTYWGIILLANPQFIS
B5: hexameric GITRL FP (Coronin 1a wt) (Fc fusion, not shown: a dimerising Fc or GST; small tags and cut ends)
chain (part 1 of 2): VSRLEEEMRKLQATVQELQKRLDRLEETVQAK
chain (part 2 of 2): B4 chain (part 2 of 2)
B6: hGITRL FP N129A (Fc fusion)
chain: B4 chain (part 2 of 2) with N81A
notes: also called N129A mutated hGITRL FP; not shown: detection with anti-FLAG antibody implies a FLAG e
B7: hexameric GITRL FP (DMPK wt) (Fc fusion, not shown: a dimerising Fc or GST; small tags and cut ends)
chain (part 1 of 2): EAEAEVTLRELQEALEEEVLTRQSLSREMEAIRTDNQNFASQLREAEARNRDLEAHVRQLQERMELLQAE
chain (part 2 of 2): B4 chain (part 2 of 2)
B8: hexameric GITRL FP (Langerin wt) (Fc fusion, not shown: a dimerising Fc or GST; small tags and cut ends)
chain (part 1 of 2): ASALNTKIRALQGSLENMSKLLKRQNDILQVVS
chain (part 2 of 2): B4 chain (part 2 of 2)
B9: hexameric GITRL FP (Matrilin 1 wt) (Fc fusion, not shown: a dimerising Fc or GST; small tags and cut ends)
chain (part 1 of 2): CACESLVKFQAKVEGLLQALTRKLEAVSKRLAILENTVV
chain (part 2 of 2): B4 chain (part 2 of 2)
B10: hexameric GITRL FP (Coronin 1a variant) (Fc fusion, not shown: a dimerising Fc or GST; small tags and cut ends)
chain (part 1 of 2): ISRIEEEIRKINATVQELQKRIDRLEETVQAK
chain (part 2 of 2): B4 chain (part 2 of 2)
B11: hexameric GITRL FP (DMPK variant) (Fc fusion, not shown: a dimerising Fc or GST; small tags and cut ends)
chain (part 1 of 2): IAEIEVTIRELQEAIEEEVLTRQSLSREIEAIRTDIQNIASQLREIEARIRDLEAHVRQLQERMELLQAE
chain (part 2 of 2): B4 chain (part 2 of 2)
B12: hGITRL FP N129A/N161D (Fc fusion)
chain: B4 chain (part 2 of 2) with N81A, N113D
notes: as for B1
B13: hGITRL FP N92D (Fc fusion, not shown: a dimerising Fc or GST)
chain: B4 chain (part 2 of 2) with N44D
B14: hexameric GITRL FP (Matrilin 1 variant) (Fc fusion, not shown: a dimerising Fc or GST; small tags and cut ends)
chain (part 1 of 2): B9 chain (part 1 of 2) with L17I, L31I
chain (part 2 of 2): B4 chain (part 2 of 2)
B15: hGITRL FP N104D (Fc fusion, not shown: a dimerising Fc or GST)
chain: B4 chain (part 2 of 2) with N56D
notes: also called N104D GITRL FP
B16: hexameric GITRL FP (Langerin variant) (Fc fusion, not shown: a dimerising Fc or GST; small tags and cut ends)
chain (part 1 of 2): ISALNTKIRAIQGSIENMSKLIKRQNDIIQVVS
chain (part 2 of 2): B4 chain (part 2 of 2)

Columns and labels:
human GITR-Fc [1] = molecular target: T1, human GITR-Fc; test: HTRF competition: titrated FP against binding of GITRL-HA (anti-HA XL665) to europium cryptate hGITR-Fc
Experimental: (§1) The effect of the GITRL FP molecules on human GITRL binding to human GITR was determined using a Homogeneous Time Resolved Fluorescence (HTRF) assay.
(§2) The GITRL FP molecules were titrated into an HTRF assay in which binding of GITRL-HA (hemagglutinin tag) to GITR-Fc was measured. The human GITR Fc was conjugated with europium cryptate and an anti-HA antibody conjugated with XL665 was used to detect the GITRL-HA protein. IC₅₀ values were determined by curve fitting the analyzed data to a four parameter logistic equation with Prism 5.01 software (GraphPad).

human GITR-Fc [2] = molecular target: T1, human GITR-Fc; test: as above; remark: listed apart in the source
Experimental: as §1, §2

human GITR-Fc [3] = molecular target: T1, human GITR-Fc; test: HTRF direct binding, Eu cryptate hGITR-Fc and anti-FLAG XL665, one site saturation fit
Experimental: The hGITRL FP molecules were titrated into an HTRF assay in which binding of the hGITRL FP to hGITR-Fc was measured. The human hGITR Fc was conjugated with europium cryptate and an anti-FLAG antibody conjugated with XL665 was used to detect the hGITRL FP protein. KD values were determined by curve fitting the analyzed data to a one site saturation binding equation with Prism 5.01 software (GraphPad).

[4] = molecular target: T2, recombinant mouse GITR-Fc; test: ELISA, coated mouse GITR-Fc, HRP anti-mouse Fc
Experimental: (§3) Recombinant mouse GITR-Fc and OX40-Fc (R&D Systems) glycoproteins were coated overnight at 1 μg/mL in PBS onto 96-well plates (Greiner). Plates were washed with PBST (PBS+0.01% Tween-20), blocked for 1 hour at room temperature with PBS containing 1% (w/v) BSA, and washed in PBST again. Twenty-five microlitres of 1 μg/mL mouse GITRL or OX40L FPs diluted in assay buffer [PBS+1% bovine serum albumin (BSA)] was added to wells, and plates were incubated for 2 hours at room temperature. After 3 washes, 25 μL of 1 μg/mL horseradish peroxidase-conjugated anti-mouse Fc antibody (Sigma) diluted in assay buffer was added to each well, and plates were incubated for 1 hour. After incubation, plates were washed 3 times in PBST, 25 μL of tetramethylbenzidine substrate solution (KPL) was added to each well, and plates incubated for 5 minutes. After incubation 15 μL of 0.5 M sulphuric acid stop solution was added to all wells. The optical density at 450 nm was measured using an EnVision plate reader (PerkinElmer).

[5] = molecular target: T3, recombinant mouse OX40-Fc; test: ELISA, coated mouse OX40-Fc, FP at 1 ug/mL, HRP anti-mouse Fc
Experimental: as §3

human GITR-Fc [6] = molecular target: T1, human GITR-Fc; test: HTRF competition; competitor GITRL-HA on GITR-Fc
Experimental: The effect of the hexameric GITRL FP molecules on human GITRL binding to human GITR was determined using a Homogeneous Time Resolved Fluorescence (HTRF) assay.
as §2, with “The hexameric GITRL FP” for “The GITRL FP”

[7] = molecular target: T4, human GITR expressed on cells; test: cell-based or functional assay
human GITR-Fc [8] = molecular target: T1, human GITR-Fc; test: HTRF competition; competitor GITRL-HA on GITR-Fc; remark: listed apart in the source
Experimental: as §2, with “The hexameric GITRL FP” for “The GITRL FP”
The effect of a hexameric GITRL IgG1 FP having the monomeric GITRL IgG1 FP subunit sequence of SEQ ID NO: 6 on human GITRL binding to human GITR was determined using a Homogeneous Time Resolved Fluorescence (HTRF) assay. The GITRL IgG1 FP was titrated into an HTRF assay in which binding of GITRL-HA (hemagglutinin tag) to GITR-Fc was measured. The human GITR-Fc was conjugated with europium cryptate and an anti-HA antibody conjugated with XL665 was used to detect the GITRL-HA protein. IC₅₀ values were determined by curve fitting the analyzed data to a four parameter logistic equation with Prism 6.0x software (GraphPad).

| Binder | IC50 (human GITR-Fc [6]) | EC50 (nM), human GITR transfected NF-κB luciferase gene reporter cell line [7] | further results |
| --- | --- | --- | --- |
| B1 | – | – | IC50 (human GITR-Fc [1]): 0.696 nM; IC50 (human GITR-Fc [2]): 0.631 nM; Kd (human GITR-Fc [3]): 1.23 nM |
| B2 | – | – | IC50 (human GITR-Fc [1]): 0.63 nM; Kd (human GITR-Fc [3]): 1.08 nM |
| B3 | – | – | binding result [4]: no binding; binding result [5]: binds |
| B4 | 1.06 nM | 1.02 nM | – |
| B5 | 0.61 nM | 0.95 nM | – |
| B6 | – | – | Kd (human GITR-Fc [3]): 3.77 nM |
| B7 | 2.73 nM | 1.37 nM | – |
| B8 | 8.05 nM | 1.54 nM | fold lower potency than GITRL FP (GCN4) (human GITR-Fc [8]): 8 fold |
| B9 | 1.36 nM | 1.12 nM | – |
| B10 | 1.44 nM | 0.74 nM | – |
| B11 | 2.43 nM | 1.39 nM | – |
| B12 | – | – | Kd (human GITR-Fc [3]): 11.8 nM |
| B13 | – | – | IC50 (human GITR-Fc [2]): 0.587 nM |
| B14 | 0.83 nM | 0.9 nM | – |
| B15 | – | – | IC50 (human GITR-Fc [2]): 0.529 nM |
| B16 | 2 nM | 0.75 nM | – |
